# Measurements: the supplement of paper PMC10724198
# ± gives the standard deviation of the averaged measurements.
# Assays:
# Saccharomyces cerevisiae [1] = assay: protein stability index of tFT-peptide fusion (C-terminal peptide) (PSI (0-1 scale)); higher = more stable (slower turnover)
# Procedure: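 MPS profiling in S. cerevisiae of the tFT-X12 degron library: putative degron peptides plus stable controls, 12 aa, fused to the C-terminus of a sfGFP-mCherry timer. Cells are FACS-sorted into 8 mCherry/sfGFP bins and deep-sequenced. PSI runs from 0 (unstable) to 1 (stable). Backgrounds are wild type, das1Δ and doa10Δ at 30 °C, and wild type, das1Δ, cdc34-1 and cdc53-1 at 37 °C; 2-3 technical replicates each.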
# Saccharomyces cerevisiae [2] = assay: as above; details: genetic background: wild type; temperature: 30 C
# [3] = genetic background: cdc34-1, temperature: 37 C
# [4] = genetic background: cdc53-1, temperature: 37 C
# [5] = genetic background: das1 deletion, temperature: 30 C
# [6] = genetic background: das1 deletion, temperature: 37 C
# [7] = genetic background: doa10 deletion, temperature: 30 C
# [8] = genetic background: wild type, temperature: 30 C
# [9] = genetic background: wild type, temperature: 37 C
# 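Further: PSI is a weighted mean of sequencing reads over stability bins, variants kept only with over 10 reads, mCherry proximal and sfGFP distal, peptide attached via GGGS linker.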
Sequence,protein stability index (Saccharomyces cerevisiae [1]; [3]),protein stability index (Saccharomyces cerevisiae [1]; [4]),protein stability index (Saccharomyces cerevisiae [1]; [5]),protein stability index (Saccharomyces cerevisiae [1]; [6]),protein stability index (Saccharomyces cerevisiae [1]; [7]),protein stability index (Saccharomyces cerevisiae [1]; [8]),protein stability index (Saccharomyces cerevisiae [1]; [9]),protein stability index (Saccharomyces cerevisiae [2])
PFLCLPFLLVSR,0.38 ± 0.022,0.4056 ± 0.0025,0.35 ± 0.029,0.49 ± 0.0032,0.467 ± 0.017,0.363 ± 0.027,0.47142 ± 0.0004,0.41 ± 0.034
PFPTPPPIPRSP,0.665 ± 0.012,0.7375 ± 0.0026,0.686 ± 0.015,0.729 ± 0.0085,0.706 ± 0.035,0.696 ± 0.012,0.7051 ± 0.0068,0.464 ± 0.05
PGRHSVRFVFVC,0.349 ± 0.023,0.519 ± 0.046,0.444 ± 0.019,0.581 ± 0.024,0.113 ± 0.0067,0.112 ± 0.028,0.143 ± 0.0068,0.208 ± 0.06
PKRNNRKAQQIS,0.61 ± 0.015,0.698 ± 0.038,0.689 ± 0.019,0.704 ± 0.06,0.249 ± 0.016,0.254 ± 0.043,0.493 ± 0.019,0.405 ± 0.032
PPAPTPFPPSPR,0.687 ± 0.037,0.7216 ± 0.0033,0.669 ± 0.034,0.741 ± 0.018,0.697 ± 0.026,0.672 ± 0.024,0.728 ± 0.01,0.593 ± 0.14
PPLPPPPASVPP,0.675 ± 0.022,0.719 ± 0.025,0.641 ± 0.011,0.7088 ± 0.0051,0.6476 ± 0.0014,0.682 ± 0.041,0.68 ± 0.03,0.503 ± 0.016
PPPPPPPFLFFL,0.706 ± 0.018,0.795 ± 0.019,0.643 ± 0.013,0.747 ± 0.013,0.458 ± 0.015,0.472 ± 0.022,0.61 ± 0.013,0.496 ± 0.061
PPTRVPVTLFLV,0.395 ± 0.013,0.673 ± 0.017,0.619 ± 0.0097,0.6761 ± 0.0013,0.0767 ± 0.022,0.0832 ± 0.011,0.09 ± 0.0034,0.153 ± 0.013
PRLWLYCLIISL,0.173 ± 0.032,0.214 ± 0.016,0.186 ± 0.039,0.335 ± 0.015,0.157 ± 0.011,0.14 ± 0.03,0.277 ± 0.022,0.2062 ± 0.00075
PVCRQVGVRLVA,0.582 ± 0.022,0.625 ± 0.052,0.525 ± 0.025,0.6482 ± 0.0047,0.265 ± 0.0046,0.311 ± 0.034,0.466 ± 0.039,0.456 ± 0.045
PVSEPCAWRIIA,0.374 ± 0.015,0.689 ± 0.026,0.6769 ± 0.0044,0.699 ± 0.018,0.0726 ± 0.0028,0.0645 ± 0.018,0.0736 ± 0.0023,0.1098 ± 0.00053
PWFCYVQLVVPV,0.226 ± 0.02,0.266 ± 0.0075,0.232 ± 0.035,0.349 ± 0.0058,0.188 ± 0.0072,0.221 ± 0.03,0.313 ± 0.0036,0.309 ± 0.0036
PYPPTSLPPTWQ,0.672 ± 0.043,0.7459 ± 0.0012,0.652 ± 0.0095,0.711 ± 0.017,0.678 ± 0.023,0.671 ± 0.038,0.701 ± 0.025,0.726 ± 0.026
QGGTWKKLVKMI,0.573 ± 0.05,0.6963 ± 0.006,0.643 ± 0.055,0.7165 ± 0.0019,0.0823 ± 0.02,0.101 ± 0.018,0.165 ± 0.019,0.226 ± 0.035
QNVKRIVRHMLT,0.62 ± 0.056,0.691 ± 0.041,0.658 ± 0.008,0.723 ± 0.04,0.207 ± 0.018,0.251 ± 0.022,0.41 ± 0.027,0.374 ± 0.018
QVSHLFAAVQLA,0.6103 ± 0.0049,0.687 ± 0.018,0.555 ± 0.0081,0.65 ± 0.0091,0.337 ± 0.021,0.364 ± 0.051,0.573 ± 0.011,0.4485 ± 0.00088
QWRMLTCLMERL,0.446 ± 0.034,0.553 ± 0.063,0.472 ± 0.015,0.4882 ± 0.0037,0.398 ± 0.056,0.379 ± 0.012,0.496 ± 0.03,0.379 ± 0.012
RAPPPSSLLSPP,0.6612 ± 0.0063,0.724 ± 0.016,0.6499 ± 0.0057,0.718 ± 0.027,0.687 ± 0.0087,0.671 ± 0.029,0.706 ± 0.037,0.402 ± 0.013
RARRFGKWERSG,0.644 ± 0.032,0.761 ± 0.025,0.639 ± 0.013,0.731 ± 0.024,0.33 ± 0.03,0.377 ± 0.03,0.544 ± 0.0099,0.4453 ± 0.0039
RDPLAPLLLAIP,0.65 ± 0.038,0.717 ± 0.015,0.587 ± 0.011,0.7006 ± 0.0047,0.596 ± 0.04,0.609 ± 0.013,0.6816 ± 0.0035,0.698 ± 0.01

Sequence,protein stability index (Saccharomyces cerevisiae [1]; [3]),protein stability index (Saccharomyces cerevisiae [1]; [4]),protein stability index (Saccharomyces cerevisiae [1]; [5]),protein stability index (Saccharomyces cerevisiae [1]; [6]),protein stability index (Saccharomyces cerevisiae [1]; [7]),protein stability index (Saccharomyces cerevisiae [1]; [8]),protein stability index (Saccharomyces cerevisiae [1]; [9]),protein stability index (Saccharomyces cerevisiae [2])
RDYIAAKLVVCG,0.4103 ± 0.0032,0.425 ± 0.029,0.304 ± 0.03,0.488 ± 0.0021,0.267 ± 0.0034,0.318 ± 0.027,0.4612 ± 0.0016,0.35 ± 0.091
REAFVVLAVFFH,0.199 ± 0.0062,0.321 ± 0.054,0.226 ± 0.019,0.406 ± 0.02,0.193 ± 0.0039,0.199 ± 0.03,0.315 ± 0.05,0.328 ± 0.04
RFCLPLRLPVTT,0.533 ± 0.028,0.5626 ± 0.0042,0.461 ± 0.037,0.5865 ± 0.0022,0.439 ± 0.0083,0.458 ± 0.016,0.589 ± 0.045,0.4497 ± 0.0012
RFFVLSFFFLVS,0.215 ± 0.013,0.335 ± 0.069,0.224 ± 0.023,0.416 ± 0.014,0.209 ± 0.01,0.212 ± 0.029,0.384 ± 0.0071,0.282 ± 0.024
RFGLPLLVVTWL,0.445 ± 0.0073,0.46 ± 0.0074,0.394 ± 0.028,0.5314 ± 0.005,0.4591 ± 0.0032,0.402 ± 0.0044,0.512 ± 0.011,0.468 ± 0.043
RFHTFVFCLLCL,0.407 ± 0.062,0.438 ± 0.018,0.432 ± 0.02,0.516 ± 0.026,0.2796 ± 0.00049,0.277 ± 0.015,0.386 ± 0.015,0.328 ± 0.06
RFLFYSFPIHTL,0.442 ± 0.061,0.6164 ± 0.0028,0.572 ± 0.039,0.67 ± 0.043,0.0683 ± 0.0092,0.0745 ± 0.019,0.105 ± 0.033,0.128 ± 0.0043
RFVLVFLVSLII,0.376 ± 0.039,0.501 ± 0.0079,0.399 ± 0.029,0.541 ± 0.042,0.364 ± 0.016,0.397 ± 0.016,0.48 ± 0.019,0.435 ± 0.035
RGLANLIVIVSS,0.572 ± 0.04,0.602 ± 0.0069,0.397 ± 0.022,0.603 ± 0.015,0.186 ± 0.012,0.228 ± 0.027,0.392 ± 0.011,0.374 ± 0.013
RGSLYLILVLIG,0.194 ± 0.0058,0.349 ± 0.087,0.215 ± 0.024,0.4035 ± 0.00092,0.118 ± 0.033,0.163 ± 0.03,0.268 ± 0.021,0.269 ± 0.026
RHTVFFCQLLLV,0.291 ± 0.0074,0.368 ± 0.0077,0.307 ± 0.012,0.43923 ± 3.7e-05,0.175 ± 0.024,0.185 ± 0.026,0.277 ± 0.046,0.238 ± 0.003
RKNSQKILKLSG,0.6945 ± 0.0068,0.7724 ± 0.0073,0.64 ± 0.042,0.739 ± 0.024,0.256 ± 0.013,0.317 ± 0.019,0.576 ± 0.029,0.502 ± 0.15
RKQLSCIMIWCK,0.361 ± 0.013,0.405 ± 0.012,0.204 ± 0.027,0.431 ± 0.0082,0.188 ± 0.0052,0.204 ± 0.015,0.40377 ± 0.00039,0.298 ± 0.011
RLFLLIECSSGF,0.451 ± 0.005,0.491 ± 0.0068,0.31 ± 0.046,0.493 ± 0.024,0.271 ± 0.0039,0.293 ± 0.035,0.508 ± 0.019,0.395 ± 0.045
RLGSLVPLAKQL,0.643 ± 0.11,0.745 ± 0.03,0.6729 ± 0.0062,0.737 ± 0.023,0.319 ± 0.0077,0.289 ± 0.023,0.413 ± 0.04,0.444 ± 0.059
RLILAIVVSGGL,0.4098 ± 0.0018,0.425 ± 0.033,0.295 ± 0.034,0.495 ± 0.0071,0.252 ± 0.015,0.305 ± 0.022,0.457 ± 0.03,0.389 ± 0.0071
RLVGVRWEVCNL,0.91 ± 0.041,0.902 ± 0.024,0.78 ± 0.041,0.86371 ± 0.00039,0.771 ± 0.022,0.772 ± 0.014,0.863 ± 0.019,0.744 ± 0.015
RNNLHKKIRRGY,0.681 ± 0.046,0.752 ± 0.0082,0.661 ± 0.043,0.745 ± 0.033,0.184 ± 0.028,0.251 ± 0.037,0.458 ± 0.013,0.413 ± 0.042
RRLRPQTVAFLS,0.593 ± 0.012,0.717 ± 0.03,0.676 ± 0.021,0.704 ± 0.028,0.159 ± 0.0046,0.176 ± 0.025,0.278 ± 0.0083,0.231 ± 0.04
